Laboratory results published in PMC12846072.

Target: VP2 capsid protein of Epizootic hemorrhagic disease virus serotype 8, wild type (Epizootic hemorrhagic disease virus serotype 8 (EHDV-8)) (UniProt Q00273)
Assay: SEC; FPLC-SEC on Superose 6 16/300 in PBS 1X pH 7.4, calibrated with the gel filtration HMW calibration kit; oligomeric state from retention time

For “VP2 capsid protein of Epizootic hemorrhagic disease virus serotype 8, wild type (from UniProt Q00273 1-971) (natural protein)”, which stoichiometry N is on record?
Its stoichiometry N is 3.
